Experimental data from the RNAGym collection of RNA variant scans (doi:10.7554/elife.90254).

B1: LINE1-full (parent)
chain: UACGUAGGUGGUUUUCCCCUGAUAGUGCUAAGGGGGCCUGGAAGUUUGGACUGGGCAGAGCUCAACACAGCGUGGCAAAGUGGCUGUGGCUAGACUGCCUCUCUGGAUUCCUCGUCACUCAGCAGGGCAUCUCUGAGAGAAAUGCC

Variants of: B1
Assay: self-cleavage, relative activity (ratio to wild type); higher = more cleavage; in vitro, sequencing; the parent is a self-cleaving ribozyme
Variant U5C C84U has a self-cleavage of 0.18.
U5C C110A showed a self-cleavage of 1.19.
U5C C111U gave a self-cleavage of 0.85.
For U5C C120U, the self-cleavage was 1.26.
In the case of U5C C128U, the self-cleavage is reported as 1.53.
Work on U5C G8A yielded a self-cleavage of 0.24.
Variant U5C G34U has a self-cleavage of 0.82.
Variant U5C G35U has a self-cleavage of 1.19.
Work on U5C G36C yielded a self-cleavage of 1.25.
U5C G40A gave a self-cleavage of 0.42.
For U5C G41U, the self-cleavage was 1.03.
In the case of U5C G48A, the self-cleavage is reported as 0.45.
U5C G60A showed a self-cleavage of 0.08.
In the case of U5C G74A, the self-cleavage is reported as 1.19.
U5C G75A gave a self-cleavage of 1.15.
U5C G127C showed a self-cleavage of 1.12.
With U5C G137A the self-cleavage was 1.38.
Work on U5C U13C yielded a self-cleavage of 0.87.
In the case of U5C U14C, the self-cleavage is reported as 0.99.
Variant U5C U15A has a self-cleavage of 0.63.
U5C U23C gave a self-cleavage of 0.83.
For U5C U26C, the self-cleavage was 1.23.
U5C U46A showed a self-cleavage of 1.29.
Work on U5C U47A yielded a self-cleavage of 0.92.
For U5C U47C, the self-cleavage was 0.67.
U5C U52A showed a self-cleavage of 1.02.
U5C U52C showed a self-cleavage of 1.23.
For U5C U52G, the self-cleavage was 1.23.
In the case of U5C U62A, the self-cleavage is reported as 0.
Variant U5C U73A has a self-cleavage of 1.74.
U5C U81C showed a self-cleavage of 0.8.
U5C U87A showed a self-cleavage of 0.15.
In the case of U5C U91G, the self-cleavage is reported as 0.
For U5C U96A, the self-cleavage was 0.12.
For U5C U96C, the self-cleavage was 0.26.
In the case of U5C U104C, the self-cleavage is reported as 1.11.
With U5C U109A the self-cleavage was 0.74.
U5C U112A gave a self-cleavage of 1.15.
Variant U5C U112C has a self-cleavage of 0.99.
Variant U5C U119C has a self-cleavage of 1.41.
For U5C U130A, the self-cleavage was 0.77.
U5C U132A gave a self-cleavage of 1.98.
U5C U134A showed a self-cleavage of 0.62.
With U5C U134C the self-cleavage was 0.33.
For U5C U143C, the self-cleavage was 0.11.
U5G A50U showed a self-cleavage of 0.38.
Variant U5G A59G has a self-cleavage of 0.19.
With U5G A64C the self-cleavage was 0.19.
Variant U5G A138G has a self-cleavage of 0.2.
Work on U5G A141G yielded a self-cleavage of 0.49.
In the case of U5G G34C, the self-cleavage is reported as 0.94.
Work on U5G U39C yielded a self-cleavage of 0.63.
U5G U100C showed a self-cleavage of 1.15.
U5G U112A gave a self-cleavage of 0.
In the case of U5G U119C, the self-cleavage is reported as 1.02.
Variant A6C A57G has a self-cleavage of 0.92.
For A6C A121U, the self-cleavage was 1.18.
With A6C A129U the self-cleavage was 0.77.
With A6C A141G the self-cleavage was 1.71.
Work on A6C C113U yielded a self-cleavage of 1.35.
Variant A6C U100C has a self-cleavage of 0.66.
Variant A6C U134C has a self-cleavage of 0.61.
A6G A22U gave a self-cleavage of 1.11.
With A6G A24G the self-cleavage was 1.21.
With A6G A24U the self-cleavage was 1.21.
With A6G A30G the self-cleavage was 1.14.
A6G A31G gave a self-cleavage of 0.66.
In the case of A6G A42G, the self-cleavage is reported as 1.15.
For A6G A42U, the self-cleavage was 0.82.
A6G A43G showed a self-cleavage of 1.35.
A6G A57G showed a self-cleavage of 0.64.
Variant A6G A57U has a self-cleavage of 0.42.
With A6G A59G the self-cleavage was 0.1.
For A6G A64U, the self-cleavage was 0.87.
A6G A77G gave a self-cleavage of 1.18.
A6G A77U gave a self-cleavage of 0.92.
For A6G A94G, the self-cleavage was 0.31.
A6G A94U gave a self-cleavage of 0.3.
With A6G A121G the self-cleavage was 1.14.
With A6G A121U the self-cleavage was 0.99.
In the case of A6G A124G, the self-cleavage is reported as 0.38.
With A6G A136G the self-cleavage was 1.17.
Variant A6G A138G has a self-cleavage of 1.11.
In the case of A6G A138U, the self-cleavage is reported as 0.67.
Work on A6G A141G yielded a self-cleavage of 1.03.
With A6G C18U the self-cleavage was 0.59.
A6G C66U gave a self-cleavage of 0.15.
For A6G C98U, the self-cleavage was 0.42.
For A6G C111U, the self-cleavage was 1.
Variant A6G C145U has a self-cleavage of 1.64.
A6G G7A gave a self-cleavage of 0.43.
With A6G G7U the self-cleavage was 1.33.
With A6G G11A the self-cleavage was 2.36.
A6G G11C gave a self-cleavage of 0.31.
For A6G G32C, the self-cleavage was 0.65.
Work on A6G G40A yielded a self-cleavage of 0.84.
Work on A6G G55U yielded a self-cleavage of 0.41.
A6G G60U showed a self-cleavage of 0.19.
Variant A6G G83A has a self-cleavage of 0.26.
Work on A6G G86A yielded a self-cleavage of 0.31.
A6G G137U gave a self-cleavage of 0.81.
Work on A6G G139U yielded a self-cleavage of 0.96.
A6G U9C gave a self-cleavage of 1.16.
For A6G U13C, the self-cleavage was 0.93.
A6G U14C showed a self-cleavage of 0.61.
A6G U15A showed a self-cleavage of 0.58.
A6G U15C showed a self-cleavage of 0.84.
For A6G U20G, the self-cleavage was 1.34.
In the case of A6G U23G, the self-cleavage is reported as 0.85.
In the case of A6G U26A, the self-cleavage is reported as 0.68.
A6G U47A showed a self-cleavage of 0.91.
With A6G U47C the self-cleavage was 0.53.
Work on A6G U52C yielded a self-cleavage of 0.72.
Variant A6G U73A has a self-cleavage of 1.11.
Variant A6G U81C has a self-cleavage of 1.78.
In the case of A6G U85A, the self-cleavage is reported as 0.
A6G U85C showed a self-cleavage of 0.2.
A6G U85G gave a self-cleavage of 0.
Variant A6G U87A has a self-cleavage of 0.17.
Variant A6G U91C has a self-cleavage of 0.51.
Work on A6G U100C yielded a self-cleavage of 0.87.
With A6G U104C the self-cleavage was 1.23.
Work on A6G U115C yielded a self-cleavage of 0.7.
For A6G U119C, the self-cleavage was 0.73.
Work on A6G U130A yielded a self-cleavage of 1.18.
Work on A6G U132C yielded a self-cleavage of 0.9.
For A6G U134A, the self-cleavage was 0.52.
Variant A6G U134C has a self-cleavage of 0.85.
For A6G U143A, the self-cleavage was 0.89.
With A6U A24G the self-cleavage was 1.13.
Variant A6U A30G has a self-cleavage of 1.01.
Work on A6U A30U yielded a self-cleavage of 0.58.
A6U A43G gave a self-cleavage of 1.01.
Variant A6U A43U has a self-cleavage of 0.89.
In the case of A6U A59C, the self-cleavage is reported as 0.74.
Variant A6U A59G has a self-cleavage of 0.11.
For A6U A64C, the self-cleavage was 0.68.
A6U A67G showed a self-cleavage of 0.49.
For A6U A67U, the self-cleavage was 0.22.
A6U A69G gave a self-cleavage of 0.89.
A6U A77G gave a self-cleavage of 1.51.
For A6U A92G, the self-cleavage was 0.27.
Variant A6U A92U has a self-cleavage of 0.47.
In the case of A6U A117G, the self-cleavage is reported as 0.3.
For A6U A117U, the self-cleavage was 1.53.
Work on A6U A121G yielded a self-cleavage of 0.87.
In the case of A6U A124U, the self-cleavage is reported as 1.51.
Variant A6U A136G has a self-cleavage of 1.33.
A6U A142C gave a self-cleavage of 0.28.
A6U A142G showed a self-cleavage of 0.81.
A6U C18U gave a self-cleavage of 0.84.
A6U C66U showed a self-cleavage of 0.09.
For A6U C71U, the self-cleavage was 1.15.
With A6U C133A the self-cleavage was 0.49.
For A6U G32U, the self-cleavage was 0.54.
For A6U G36A, the self-cleavage was 0.88.
In the case of A6U G41A, the self-cleavage is reported as 1.52.
For A6U G53A, the self-cleavage was 0.9.
A6U G54U gave a self-cleavage of 0.94.
A6U G55U gave a self-cleavage of 0.4.
With A6U G72A the self-cleavage was 1.2.
Variant A6U G105U has a self-cleavage of 1.71.
With A6U G114A the self-cleavage was 0.
For A6U G126A, the self-cleavage was 1.8.
A6U G126U showed a self-cleavage of 1.16.
Work on A6U G137A yielded a self-cleavage of 1.53.
Variant A6U U9A has a self-cleavage of 1.56.
